Source: patent US20260085122A1 (BEONE MEDICINES I, published 2026)
Values belong to the binder of their own block, whether it stands above or below them.

Legend:
[1] = biological target: T1, 4Ig-B7H3 (Cat: 11188-H02H) (human); experiment: SPR (Biacore 8K, 25 C), B7H3 captured by anti-human IgG, VHH as analyte, 1:1 model
T1 construct: also called B7H3-4IG; 4Ig-B7H3 proteins
Experimental: (§1) 4Ig-B7H3 (Cat: 11188-H02H) and 2Ig-B7H3 (Cat: B73-H5253) proteins were coupled onto a CM5 Biocore sensor derivatized via amine coupling with anti-human IgG antibody (Cat: 29234600). The VHH fragments were then flowed through at a rate at 40 μl/min. Association of VHH to B7H3 proteins was monitored for 120 seconds and disassociation of VHH in buffer 1×HBS (0.01 M HEPES, pH 7.4, 0.15 M NaCl, 3 mM EDTA, 0.05% v/v surfactant P20) was monitored for more than 120 seconds.
(§2) Ka and Kd were determined by fitting the real-time sensorgram to a 1:1 binding model using Biacore Insight Evaluation software. Binding disassociation equilibrium constants (KD) were calculated from kinetics rates as follows: […]

[2] = biological target: 2Ig-B7H3 (Cat: B73-H5253) (UniProt Q5ZPR3 29-245); experiment: as above
2Ig-B7H3 (Cat: B73-H5253), sequence (Q5ZPR3 other isoform, or with tags, fused parts or gaps): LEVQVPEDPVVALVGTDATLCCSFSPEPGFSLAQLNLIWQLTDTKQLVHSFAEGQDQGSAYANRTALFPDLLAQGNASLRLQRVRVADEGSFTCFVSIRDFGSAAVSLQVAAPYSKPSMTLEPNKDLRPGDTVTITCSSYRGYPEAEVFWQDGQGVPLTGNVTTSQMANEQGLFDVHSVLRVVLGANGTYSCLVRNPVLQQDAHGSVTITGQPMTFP
Experimental: as §1, §2

T1 sequence (Q5ZPR3 29-461): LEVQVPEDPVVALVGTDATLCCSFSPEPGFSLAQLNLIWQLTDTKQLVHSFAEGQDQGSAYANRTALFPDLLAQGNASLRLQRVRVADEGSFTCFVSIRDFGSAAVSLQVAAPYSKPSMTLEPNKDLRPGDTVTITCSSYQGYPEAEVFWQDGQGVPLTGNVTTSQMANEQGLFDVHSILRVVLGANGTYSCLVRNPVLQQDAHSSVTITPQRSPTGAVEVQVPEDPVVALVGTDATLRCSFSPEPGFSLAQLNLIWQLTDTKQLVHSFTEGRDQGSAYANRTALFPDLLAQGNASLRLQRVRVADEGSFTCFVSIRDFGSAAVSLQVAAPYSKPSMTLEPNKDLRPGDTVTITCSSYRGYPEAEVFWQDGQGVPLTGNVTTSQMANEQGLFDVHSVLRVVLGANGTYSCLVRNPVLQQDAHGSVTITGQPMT

Kd [1]: 3.89 nM | koff [1]: 0.0096 s⁻¹ | kon [1]: 2.47e+06 M⁻¹ s⁻¹ | Kd [2]: 43.3 nM | koff [2]: 0.129 s⁻¹ | kon [2]: 2.99e+06 M⁻¹ s⁻¹
B1: VHH1_C002 (VHH)
VHH: EVQLLESGGGLVQPGGSLRLSCAASGFTFSDYHMSWVRQAPGKGLEWVSGILNTGLSPTYAATVTGRFTISRDNSKNTLYLQMNSLRAEDTAVYYCAQGYYRATPSQANRGQGTLVTVSS
notes: Monovalent VHH fragment with C-terminal 6xHis-tag, no Fc

Kd [1]: 7.41 nM | koff [1]: 0.00677 s⁻¹ | kon [1]: 914000 M⁻¹ s⁻¹ | Kd [2]: 94.1 nM | koff [2]: 0.27 s⁻¹ | kon [2]: 2.87e+06 M⁻¹ s⁻¹
B2: VHH1_C001 (VHH)
VHH: EVQLVESGGGLVQPGGSLRLSCAASPRTFQTYFMGWFRQAPGKELEWVSVINWSGGTSYYKDSVKGRFTISRDNSKNTLYLQMNSLRAEDTAVYYCAAKGSGTYDREGEYDYWGQGTLVTVSS
notes: as for B1
